Primed or numbered codes have the meaning given here. The star is where a group is joined. 5FAM = O=C1OC2(c3ccc(O)cc3Oc3cc(O)ccc32)c2ccc(C(=O)*)cc21; Dabcyl′ = CN(C)c1ccc(/N=N/c2ccc(C(=O)*)cc2)cc1
Biological target: ADAM9-P750L (rs144750648) (human) (UniProt Q13443)
Design: unit not given beside the values

Chain of UniProt Q13443 (Q13443 29-819 P750L): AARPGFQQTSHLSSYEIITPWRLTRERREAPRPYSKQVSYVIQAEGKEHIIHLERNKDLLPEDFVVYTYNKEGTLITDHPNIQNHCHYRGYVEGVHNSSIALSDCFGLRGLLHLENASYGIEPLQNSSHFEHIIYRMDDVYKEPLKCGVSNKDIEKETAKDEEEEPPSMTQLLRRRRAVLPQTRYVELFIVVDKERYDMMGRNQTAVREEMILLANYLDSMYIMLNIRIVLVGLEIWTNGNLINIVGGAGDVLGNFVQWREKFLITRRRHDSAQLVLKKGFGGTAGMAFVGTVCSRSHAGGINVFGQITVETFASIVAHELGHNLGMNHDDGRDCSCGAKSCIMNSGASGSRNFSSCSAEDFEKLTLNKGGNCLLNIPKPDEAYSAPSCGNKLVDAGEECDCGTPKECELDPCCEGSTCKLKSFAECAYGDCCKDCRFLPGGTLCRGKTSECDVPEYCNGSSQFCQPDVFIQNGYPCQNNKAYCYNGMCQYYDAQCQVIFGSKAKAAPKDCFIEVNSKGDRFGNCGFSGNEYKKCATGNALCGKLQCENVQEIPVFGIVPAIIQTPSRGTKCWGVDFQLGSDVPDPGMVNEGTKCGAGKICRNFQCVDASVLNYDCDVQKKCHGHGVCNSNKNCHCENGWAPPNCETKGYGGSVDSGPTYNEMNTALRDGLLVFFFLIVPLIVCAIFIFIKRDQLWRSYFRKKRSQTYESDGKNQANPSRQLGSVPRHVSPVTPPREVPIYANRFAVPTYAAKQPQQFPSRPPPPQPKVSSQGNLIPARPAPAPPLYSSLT

Km of cleavage of the fluorogenic substrate PEPDAB010 (Lineweaver-Burk plot, lysates of transfected HEK293 cells), reduction compared to ADAM9 WT (% reduction of Km compared to ADAM9 WT): 41.9
B1: ADAM9 fluorogenic substrate PEPDAB010 (Dabcyl-…[5-FAM]-NH2) (peptide)
peptide: {Dabcyl′}-SPLAQAVRSSK(5FAM)-NH2
SMILES: CC(C)C[C@H](NC(=O)[C@@H]1CCCN1C(=O)[C@H](CO)NC(=O)c1ccc(/N=N/c2ccc(N(C)C)cc2)cc1)C(=O)N[C@@H](C)C(=O)N[C@@H](CCC(N)=O)C(=O)N[C@@H](C)C(=O)N[C@H](C(=O)N[C@@H](CCCNC(=N)N)C(=O)N[C@@H](CO)C(=O)N[C@@H](CO)C(=O)N[C@@H](CCCCNC(=O)c1ccc2c(c1)C(=O)OC21c2ccc(O)cc2Oc2cc(O)ccc21)C(N)=O)C(C)C

From article PMC12052454
